Source: article PMC9908889

Columns and labels:
MORF WH1 (Homo sapiens) [1] = molecular target: T1, MORF WH1 (Homo sapiens) (UniProt Q8WYB5); test: fluorescence polarization; conditions: EMSA: 20-25 mM Tris-HCl pH 7.5, 20-150 mM NaCl, 0-0.2 mM EDTA, 0-5 mM DTT, 0-20% glycerol, 4 C; NCP197 EMSA: 10 mM Tris, 1 mM EDTA, 10 mM NaCl, 1 mM TCEP; FP: …
T1 sequence: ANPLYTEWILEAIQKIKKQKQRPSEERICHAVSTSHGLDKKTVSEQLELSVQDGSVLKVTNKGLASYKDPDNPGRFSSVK

MORF WH2 (Homo sapiens) [2] = test: fluorescence polarization; conditions: EMSA: 20-25 mM Tris-HCl pH 7.5, 20-150 mM NaCl, 0-0.2 mM EDTA, 0-5 mM DTT, 0-20% glycerol, 4 C, NCP197 EMSA: 10 mM Tris, 1 mM EDTA, 10 mM NaCl, 1 mM TCEP, FP: …
[3] = molecular target: T2, MORF WH1-WH2 (Homo sapiens) (UniProt Q8WYB5); test: fluorescence polarization; conditions: EMSA: 20-25 mM Tris-HCl pH 7.5, 20-150 mM NaCl, 0-0.2 mM EDTA, 0-5 mM DTT, 0-20% glycerol, 4 C; NCP197 EMSA: 10 mM Tris, 1 mM EDTA, 10 mM NaCl, 1 mM TCEP; FP: …
T2 sequence: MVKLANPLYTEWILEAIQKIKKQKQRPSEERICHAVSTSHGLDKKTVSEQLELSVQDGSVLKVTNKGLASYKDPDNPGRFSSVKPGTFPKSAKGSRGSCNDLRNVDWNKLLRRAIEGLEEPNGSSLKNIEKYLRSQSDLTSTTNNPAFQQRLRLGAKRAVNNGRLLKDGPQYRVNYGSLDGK

MORF WH1 (Homo sapiens) [4] = molecular target: T1, MORF WH1 (Homo sapiens); test: EMSA; conditions: His-tagged; EMSA: 20-25 mM Tris-HCl pH 7.5, 20-150 mM NaCl, 0-0.2 mM EDTA, 0-5 mM DTT, 0-20% glycerol, 4 C; NCP197 EMSA: 10 mM Tris, 1 mM EDTA, 10 mM NaCl, 1 mM TCEP; FP: …
MORF WH2 (Homo sapiens) [5] = test: EMSA; conditions: EMSA: 20-25 mM Tris-HCl pH 7.5, 20-150 mM NaCl, 0-0.2 mM EDTA, 0-5 mM DTT, 0-20% glycerol, 4 C, NCP197 EMSA: 10 mM Tris, 1 mM EDTA, 10 mM NaCl, 1 mM TCEP, FP: …

NCP147
K half (MORF WH1 (Homo sapiens) [1]): 9 µM
K half (MORF WH2 (Homo sapiens) [2]): 1000 nM
K half [3]: 12 nM

CpG-DNA16
Kd (MORF WH1 (Homo sapiens) [4]): 2 µM

A-DNA15 (15 bp A-rich)
Kd (MORF WH2 (Homo sapiens) [5]; source data name GST-MORF WH2): 7.8 µM

NCP207
K half (MORF WH1 (Homo sapiens) [1]): 0.3 µM
K half (MORF WH2 (Homo sapiens) [2]; text says NCP187, source data and Methods say NCP207): 1400 nM
K half [3]: 7 nM

DNA147 (601 Widom)
K half (MORF WH1 (Homo sapiens) [1]): 15 µM
K half [3]: 62 nM

C-DNA15 (15 bp C-rich)
Kd (MORF WH2 (Homo sapiens) [5]): 18 µM
